For assay [1], the target named is T1, human TL1A extracellular domain with N-terminal HIS and FLAG tag (human, UniProt O95150 72-251).
T1 construct: the whole entry is named
T1 sequence: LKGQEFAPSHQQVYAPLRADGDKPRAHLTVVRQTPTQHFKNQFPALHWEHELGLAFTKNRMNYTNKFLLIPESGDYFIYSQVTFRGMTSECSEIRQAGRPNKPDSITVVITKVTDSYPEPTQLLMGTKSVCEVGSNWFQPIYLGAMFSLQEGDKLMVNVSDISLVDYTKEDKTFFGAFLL
Put plainly: SPR Run 6, purified Ab captured on Protein A, TL1A 5 ug/mL, timepoint 44. The text has this: (§1) 1.5. Antibody expression and antigen binding as determined by SPR. Using a CM5 sensor chip (GE Healthcare) Protein A (Pierce) was coupled to the chip surface using an amine coupling kit (GE Healthcare). Protein A was coupled on flow cell 1 and 2 (or alternatively 3 and 4) using a BIACORE® T200. […] The amount of supernatant or purified protein (as well as the concentration) injected during the capture stage varied between runs and is specified in the header of the Tables 3-11. At the end of injection of the supernatant or purified antibody the change in response units was measured. This value was reported as Capture Level in Tables 3-11. […] The response units were measured prior to the end of the dissociation phase. […] The sensorgrams were double referenced (flow cell 2 is subtracted from flow cell 1 and a buffer blank). As there were a large number of antibody variants to screen, these were screened across different runs (Tables 3-11). […] A summary of the conditions used in each run is below:
(§2) 2.1. […] In some experiment the antibodies were purified using Protein A chromatography (See 1.4) and purified antibodies were used in BIACORE® (GE Healthcare) experiments.

Assay [2] addresses T1, human TL1A extracellular domain with …. Description: SPR Run 6, purified Ab captured on Protein A, TL1A 5 ug/mL, timepoint 170.
From the text: as §1, §2

B1: 320-462 (antibody, human IgG1, name in Kabat numbering, V domains shown)
VH: QVQLVQSGAEVKKPGASVKVSCKASGYTFTSYDYNWVRQAPGQGLEWMGWLNPNSGNTGYAQKFQGRVTMTADRSTSTAYMELSSLRSEDTAVYYCAREVPETAAFEYWGQGTLVTVSS
VL: QSVLTQPPSVSGAPGQRVTISCTSSSSDIGAGLGVHWYQQLPGTAPKLLIEGYYNRPSGVPDRFSGSKSGTSASLTITGLLPEDEGDYYCQSYDGTLSALFGGGTKLTVLG
notes: human IgG1, lambda
B1: the “TL1A Binding Level (Early)” value in assay [1] was 58 RU. Besides, the “TL1A Binding Level (Late)” value in assay [2] was 52 RU.

B2: 320-466 (antibody, human IgG1, name in Kabat numbering, V domains shown)
VH: QVQLVQSGAEVKKPGASVKVSCKASGYTFTSYDIDWVRQAPGQGLEWMGWLNPNSGNTGYAQKFQGRVTMTADRSTSTAYMELSSLRSEDTAVYYCAREVPETAAFEYWGQGTLVTVSS
VL: QSVLTQPPSVSGAPGQRVTISCTSSSSDIGAGLGVHWYQQLPGTAPKLLIEGYYNRPSGVPDRFSGSKSGTSASLTITGLLPEDEGDYYCQSYDGTLSALFGGGTKLTVLG
notes: human IgG1, lambda
For the molecule B2, in assay [1], the “TL1A Binding Level (Early)” value was 93 RU. Besides, in assay [2], the “TL1A Binding Level (Late)” value was found to be 86 RU.

B3: 320-472 (antibody, human IgG1, name in Kabat numbering, V domains shown)
VH: QVQLVQSGAEVKKPGASVKVSCKASGYTFTSYDINWVRQAPGQGLEWMGWLNPNSGNTGYAQKFQGRVTMTADRSTSTAYMELSSLRSEDTAVYYCAREVPETAAFEYWGQGTLVTVSS
VL: QSVLTQPPSVSGAPGQRVTISCTSSSSDIGAGLGVHWYQQLPGTAPKLLIEGYYNRPSGVPDRFSGSKSGTSASLTITGLLPEDEGDYYCQLYDGTLSALFGGGTKLTVLG
notes: human IgG1, lambda
Regarding B3, the “TL1A Binding Level (Early)” value in assay [1] was found to be 23 RU. In addition, the “TL1A Binding Level (Late)” value in assay [2] is 10 RU.

B4: 320-478 (antibody, human IgG1, name in Kabat numbering, V domains shown)
VH: QVQLVQSGAEVKKPGASVKVSCKASGYTFTSYDINWVRQAPGQGLEWMGWLNPNSGNTGYLQKFQGRVTMTADRSTSTAYMELSSLRSEDTAVYYCAREVPETAAFEYWGQGTLVTVSS
VL: QSVLTQPPSVSGAPGQRVTISCTSSSSDIGAGLGVHWYQQLPGTAPKLLIEGYYNRPSGVPDRFSGSKSGTSASLTITGLLPEDEGDYYCQSYDGTLSALFGGGTKLTVLG
notes: human IgG1, lambda
In the case of B4, the “TL1A Binding Level (Early)” value in assay [1] stood at 85 RU. Also, the “TL1A Binding Level (Late)” value in assay [2] was found to be 77 RU.

B5: 320-491 (antibody, human IgG1, name in Kabat numbering, V domains shown)
VH: QVQLVQSGAEVKKPGASVKVSCKASGYTFTSYDINWVRQAPGQGLEWMGWSNPNSGNTGYAQKFQGRVTMTADRSTSTAYMELSSLRSEDTAVYYCAREVPETAAFEYWGQGTLVTVSS
VL: QSVLTQPPSVSGAPGQRVTISCTSSSSDIGAGLGVHWYQQLPGTAPKLLIEGYYNRPSGVPDRFSGSKSGTSASLTITGLLPEDEGDYYCQSYDGTLSALFGGGTKLTVLG
notes: human IgG1, lambda
Turning to B5, in assay [1], the “TL1A Binding Level (Early)” value worked out at 85 RU. The “TL1A Binding Level (Late)” value in assay [2] came out at 76 RU.

B6: 320-490 (antibody, human IgG1, name in Kabat numbering, V domains shown)
VH: QVQLVQSGAEVKKPGASVKVSCKASGYTFTSYDINWVRQAPGQGLEWMGYLNPNSGNTGYAQKFQGRVTMTADRSTSTAYMELSSLRSEDTAVYYCAREVPETAAFEYWGQGTLVTVSS
VL: QSVLTQPPSVSGAPGQRVTISCTSSSSDIGAGLGVHWYQQLPGTAPKLLIEGYYNRPSGVPDRFSGSKSGTSASLTITGLLPEDEGDYYCQSYDGTLSALFGGGTKLTVLG
notes: human IgG1, lambda
Take B6: in assay [1], the “TL1A Binding Level (Early)” value worked out at 14 RU. In addition, the “TL1A Binding Level (Late)” value in assay [2] came to 8 RU.

B7: 320-467 (antibody, human IgG1, name in Kabat numbering, V domains shown)
VH: QVQLVQSGAEVKKPGASVKVSCKASGYTFTSYDIHWVRQAPGQGLEWMGWLNPNSGNTGYAQKFQGRVTMTADRSTSTAYMELSSLRSEDTAVYYCAREVPETAAFEYWGQGTLVTVSS
VL: QSVLTQPPSVSGAPGQRVTISCTSSSSDIGAGLGVHWYQQLPGTAPKLLIEGYYNRPSGVPDRFSGSKSGTSASLTITGLLPEDEGDYYCQSYDGTLSALFGGGTKLTVLG
notes: human IgG1, lambda
Consider B7, for which, in assay [1], the “TL1A Binding Level (Early)” value was determined as 44 RU. In addition, the “TL1A Binding Level (Late)” value in assay [2] is 24 RU.

B8: 320-480 (antibody, human IgG1, name in Kabat numbering, V domains shown)
VH: QVQLVQSGAEVKKPGASVKVSCKASGYTFTSYDINWVRQAPGQGLEWMGWLNPNSGNTGYYQKFQGRVTMTADRSTSTAYMELSSLRSEDTAVYYCAREVPETAAFEYWGQGTLVTVSS
VL: QSVLTQPPSVSGAPGQRVTISCTSSSSDIGAGLGVHWYQQLPGTAPKLLIEGYYNRPSGVPDRFSGSKSGTSASLTITGLLPEDEGDYYCQSYDGTLSALFGGGTKLTVLG
notes: human IgG1, lambda
For B8, in assay [1], the “TL1A Binding Level (Early)” value is 79 RU. Also, the “TL1A Binding Level (Late)” value in assay [2] was 73 RU.

B9: 320-479 (antibody, human IgG1, name in Kabat numbering, V domains shown)
VH: QVQLVQSGAEVKKPGASVKVSCKASGYTFTSYDINWVRQAPGQGLEWMGWLNPNSGNTGYWQKFQGRVTMTADRSTSTAYMELSSLRSEDTAVYYCAREVPETAAFEYWGQGTLVTVSS
VL: QSVLTQPPSVSGAPGQRVTISCTSSSSDIGAGLGVHWYQQLPGTAPKLLIEGYYNRPSGVPDRFSGSKSGTSASLTITGLLPEDEGDYYCQSYDGTLSALFGGGTKLTVLG
notes: human IgG1, lambda
Regarding B9, the “TL1A Binding Level (Early)” value in assay [1] was 61 RU. The “TL1A Binding Level (Late)” value in assay [2] is 54 RU.

B10: 320-469 (antibody, human IgG1, name in Kabat numbering, V domains shown)
VH: QVQLVQSGAEVKKPGASVKVSCKASGYTFTSYDILWVRQAPGQGLEWMGWLNPNSGNTGYAQKFQGRVTMTADRSTSTAYMELSSLRSEDTAVYYCAREVPETAAFEYWGQGTLVTVSS
VL: QSVLTQPPSVSGAPGQRVTISCTSSSSDIGAGLGVHWYQQLPGTAPKLLIEGYYNRPSGVPDRFSGSKSGTSASLTITGLLPEDEGDYYCQSYDGTLSALFGGGTKLTVLG
notes: human IgG1, lambda
With B10, the “TL1A Binding Level (Early)” value in assay [1] turned out to be 69 RU. In addition, in assay [2], the “TL1A Binding Level (Late)” value is 61 RU.

B11: 320-473 (antibody, human IgG1, name in Kabat numbering, V domains shown)
VH: QVQLVQSGAEVKKPGASVKVSCKASGYTFTSYDINWVRQAPGQGLEWMGWLNPNSGNTGYAQKFQGRVTMTADRSTSTAYMELSSLRSEDTAVYYCAREVPETAAFEYWGQGTLVTVSS
VL: QSVLTQPPSVSGAPGQRVTISCTSSSSDIGAGLGVHWYQQLPGTAPKLLIEGYYNRPSGVPDRFSGSKSGTSASLTITGLLPEDEGDYYCQSDDGTLSALFGGGTKLTVLG
notes: human IgG1, lambda
For B11, in assay [1], the “TL1A Binding Level (Early)” value was 69 RU. Moreover, the “TL1A Binding Level (Late)” value in assay [2] turned out to be 55 RU.

B12: 320-465 (antibody, human IgG1, name in Kabat numbering, V domains shown)
VH: QVQLVQSGAEVKKPGASVKVSCKASGYTFTSYDIQWVRQAPGQGLEWMGWLNPNSGNTGYAQKFQGRVTMTADRSTSTAYMELSSLRSEDTAVYYCAREVPETAAFEYWGQGTLVTVSS
VL: QSVLTQPPSVSGAPGQRVTISCTSSSSDIGAGLGVHWYQQLPGTAPKLLIEGYYNRPSGVPDRFSGSKSGTSASLTITGLLPEDEGDYYCQSYDGTLSALFGGGTKLTVLG
notes: human IgG1, lambda
With B12, the “TL1A Binding Level (Early)” value in assay [1] was determined as 92 RU. Also, the “TL1A Binding Level (Late)” value in assay [2] turned out to be 78 RU.

B13: 320-476 (antibody, human IgG1, name in Kabat numbering, V domains shown)
VH: QVQLVQSGAEVKKPGASVKVSCKASGKTFTSYDINWVRQAPGQGLEWMGWLNPNSGNTGYAQKFQGRVTMTADRSTSTAYMELSSLRSEDTAVYYCAREVPETAAFEYWGQGTLVTVSS
VL: QSVLTQPPSVSGAPGQRVTISCTSSSSDIGAGLGVHWYQQLPGTAPKLLIEGYYNRPSGVPDRFSGSKSGTSASLTITGLLPEDEGDYYCQSYDGTLSALFGGGTKLTVLG
notes: human IgG1, lambda
In the case of B13, the “TL1A Binding Level (Early)” value in assay [1] was 128 RU. For the same molecule, in assay [2], the “TL1A Binding Level (Late)” value came to 118 RU.

The values are drawn from patent publication US20170081400A1 (CEPHALON, published 2017).
